{"source": "paper PMC8732845", "about": "“Novel interaction between neurotrophic factor-α1/carboxypeptidase E and serotonin receptor, 5-HTR1E, protects human neurons against oxidative/neuroexcitotoxic stress via β-arrestin/ERK signaling” (Cellular and Molecular Life Sciences: CMLS, 2021)", "binders": {"B1": {"name": "Recombinant mouse NF-α1/CPE (neurotrophic factor-α1/carboxypeptidase E), unlabeled (ligand)", "chain": "not shown"}}, "target": "5-hydroxytryptamine receptor 1-E (5-HTR1E) on stably transfected HEK293 cells (human, UniProt P28566 1-365)", "sequence (P28566 whole entry)": "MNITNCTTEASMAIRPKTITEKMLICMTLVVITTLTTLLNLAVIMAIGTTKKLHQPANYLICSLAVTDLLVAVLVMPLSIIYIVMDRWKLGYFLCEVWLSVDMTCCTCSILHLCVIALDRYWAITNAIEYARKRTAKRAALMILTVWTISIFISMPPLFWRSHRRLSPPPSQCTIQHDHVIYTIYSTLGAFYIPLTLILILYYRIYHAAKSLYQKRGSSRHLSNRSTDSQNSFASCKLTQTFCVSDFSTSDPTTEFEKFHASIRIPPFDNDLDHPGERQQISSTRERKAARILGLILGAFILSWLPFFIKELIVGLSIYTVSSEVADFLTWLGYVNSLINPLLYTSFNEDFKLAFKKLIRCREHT", "assay": "cell-based or functional assay", "data": [{"binder": "B1", "values": [{"measurement": "CREB phosphorylation (Western blot, pCREB/tCREB) in 5-HTR1E stable cells, 50 nM NF-α1/CPE, 10–60 min (value after 20 min); not in control HEK293 cells", "value": 1.3, "unit": "fold"}, {"measurement": "phosphorylation of ERK 1/2 (Western blot, pERK/tERK) in 5-HTR1E stable HEK293 cells, 0–50 nM NF-α1/CPE for 5–15 min; not in control HEK293 cells", "value": 3.4, "unit": "fold"}]}]}
